Test results as given in US20140248638A1 (BAXALTA, published 2014).

Target: T1, human oxMIF (oxidized macrophage migration inhibitory factor) (human, UniProt P14174 2-115, oxidized isoform: made by mild oxidation (cystine, GSSG) or by 0.2% Proclin300 or protein crosslinkers (e.g. BMOE); the modified residues are not stated)
T1 construct: mature; a conformational/redox isoform; also called oxidized MIF; recombinant human oxMIF
Test: sandwich ELISA, plate coated with RAM0, human EDTA plasma; calibrated with recombinant human MIF in 0.2% ProClin300

T1 sequence (P14174 2-115): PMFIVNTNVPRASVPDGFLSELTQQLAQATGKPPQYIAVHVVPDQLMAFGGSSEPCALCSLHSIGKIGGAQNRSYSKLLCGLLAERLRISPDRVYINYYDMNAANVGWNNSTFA

- binding result: binds
B1: human anti-MIF monoclonal antibody RAM0 (antibody, human IgG1, kappa, V domains shown)
VH: EVQLLESGGGLVQPGGSLRLSCAASGFTFSWYAMDWVRQAPGKGLEWVSGIYPSGGRTKYADSVKGRFTISRDNSKNTLYLQMNSLRAEDTAVYYCARVNVIAVAGTGYYYYGMDVWGQGTTVTVSS
VL: DIQMTQSPGTLSLSPGERATLSCRASQGVSSSSLAWYQQKPGQAPRLLIYGTSSRATGIPDRFSGSASGTDFTLTISRLQPEDFAVYYCQQYGRSLTFGGGTKVEIKR
notes: Deposits DSM 25864 and DSM 25863
